Source: US20220162322A1

Biological target: BDCA-2 (CLEC4C, CD303) on human plasmacytoid dendritic cells (purified pDC or pDC within PBMC) (human) (UniProt Q8WTT0)
Experiment: cell-based or functional assay

Chain of BDCA-2 (CLEC4C, CD303) on human plasmacytoid dendritic cells (purified pDC or pDC within PBMC) (human) (Q8WTT0 whole entry): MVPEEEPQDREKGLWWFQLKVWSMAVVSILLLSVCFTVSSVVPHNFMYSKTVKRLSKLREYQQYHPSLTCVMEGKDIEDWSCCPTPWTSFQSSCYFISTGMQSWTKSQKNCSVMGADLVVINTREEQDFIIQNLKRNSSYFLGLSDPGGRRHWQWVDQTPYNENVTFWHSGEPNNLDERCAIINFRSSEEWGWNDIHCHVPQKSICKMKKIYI

B1: anti-BDCA-2 mAb BIIB059 (from patent WO2014093396) (antibody, INN chains, looked up, V domains shown)
VH: DVQLVESGGGLVKPGGSLRLSCAASGFTFSTYTMSWVRQAPGKGLEWVATISPGDSFGYYYPDSVQGRFTISRDNAKNSLYLQMNSLRAEDTAVYYCTRDIYYNYGAWFAYWGQGTLVTVSS
VL: DIQLTQSPSSLSASVGDRVTITCKASQSVDYDGDSYMNWYQQKPGKAPKLLIYAASTLESGVPSRFSGSGSGTDFTLTISSLQPEDFATYYCQQANEDPRTFGQGTKVEIK
**Q.** For B1, which IC50, nM; inhibition of IFNα from ODN stimulated healthy donor PBMC is on record?
**A.** 0.85 nM

**Q.** And the IC50, ng/ml; inhibition of IFNα from ODN stimulated healthy donor PBMC?
**A.** 128 ng/mL

**Q.** And the IC90, nM; inhibition of IFNα from ODN stimulated healthy donor PBMC?
**A.** 7.68 nM

**Q.** What about the IC90, ng/ml; inhibition of IFNα from ODN stimulated healthy donor PBMC of the same binder?
**A.** 1150 ng/mL
